± gives the uncertainty stated by the source.

The nature of the series: amyloid nucleation score (Sup35N fusion, yeast selection) (log enrichment); library NNK1; higher = more nucleation; inactive = no reads after selection. In outline: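 Using DiMSum, nucleation scores were taken as the log enrichment of output over input reads, centred on the mode score of non-aggregating sequences. The input and output reads came from Illumina sequencing of plasmid inserts, with sequences under 100 input reads excluded. The yeast were psi-negative, expressed Sup35N fused to peptides of 20 random codons, were induced with 100 μM copper sulfate for 24 hours, and were grown 7 days at 30°C on medium lacking adenine and uracil.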
As for YLGWDRNRDYEWAIDASRAN, the amyloid nucleation score entry is “inactive”.

GVNCKYVVLKNNVIWTHCLR: the amyloid nucleation score amounted to 6.453 ± 0.05.

For CFCPSKGDTDRLWAHFSARF, the amyloid nucleation score is -0.093 ± 0.45.

For the substance DRVANNLMD, the amyloid nucleation score was -0.344 ± 0.26.

Consider TSWRAWVGAVKRSAFFYTYY, for which the amyloid nucleation score turned out to be 0.444 ± 1.4.

In the case of LMNVVLISHKSFVYSR, the amyloid nucleation score is -1.16 ± 2.7.

On to GFSLDRFSDHVLMGNSD, for which the amyloid nucleation score was -0.585 ± 0.23.

Substance VFRDVHD yielded an amyloid nucleation score of 0.417 ± 0.42.

Turning to RTMLMLMTSVLGGQGK, the amyloid nucleation score was 7.02 ± 0.079.

TYRCR displayed an amyloid nucleation score of 0.624 ± 0.53.

RIELLWRKVSGKCLVQDFDI came in with an amyloid nucleation score of 0.117 ± 0.47.

The substance KYPSKSSELSGYEDSRNFVG returned an amyloid nucleation score of 0.806 ± 0.62.

As to EGRTWRGSRRGLHLDSPRMC, the amyloid nucleation score stood at 0.438 ± 0.95.

Consider YYLSCNDSKGYSMRQFMYDV, for which the amyloid nucleation score was -0.139 ± 0.81.

On to RLDIDFNGLRMFLNVFLMVV, for which the amyloid nucleation score was -0.188 ± 0.2.

With DQYIGGFGFNYETFVTRNLV, the amyloid nucleation score was -0.861 ± 0.49.

Turning to SRGTGRARDAAA, the amyloid nucleation score was -0.488 ± 1.1.

YKNTCQLYPRVFTPWWYERM had an amyloid nucleation score of 0.173 ± 0.67.

As for TNISQGRCKVECLPITSIYG, the amyloid nucleation score worked out at 0.247 ± 0.75.

Consider FKSYCVGLHDYGP, for which the amyloid nucleation score was determined as 0.242 ± 0.99.

CSLLLMYIKNELMIRSFGRF: the amyloid nucleation score entry was “inactive”.

On to INTKRVRSRHSTR, for which the amyloid nucleation score was -0.502 ± 0.79.

In turn, FQCVILVPG returned an amyloid nucleation score of 1.03 ± 0.74.

The substance HCCFTGRKGYSRFAVLSCST gave an amyloid nucleation score of 1.11 ± 0.48.

As to KFRMCEFSGAYTYGVFKNLP, the amyloid nucleation score was found to be 0.834 ± 0.26.

For the substance LLYGA, the amyloid nucleation score was -0.727 ± 1.4.

In turn, SATASNGRMAGSVSSWRKRW gave an amyloid nucleation score of 0.219 ± 0.36.

In turn, RAAALRRKRDD displayed an amyloid nucleation score of 0.203 ± 0.42.

For the substance NCWQLYLKHSVPRRIQRGYA, the amyloid nucleation score was -0.577 ± 0.48.

ACLISMMLVLCYI registered an amyloid nucleation score of 1.67 ± 0.53.

Take RTLSWFRRKIIVLYLYYTHS: the amyloid nucleation score is -0.272 ± 0.88.

Regarding VFKGQMVVPPIYVYLVSWMG, the amyloid nucleation score is -1.06 ± 1.7.

Take LMRRGGCVYVGFFWELVCFQ: the amyloid nucleation score was -0.524 ± 0.83.

VEAESFARCDRHVHRQTIGG registered an amyloid nucleation score of 0.369 ± 0.54.

Substance LSLDRNVATHKGSYPEWDNF had an amyloid nucleation score of 0.752 ± 0.23.

RRICSNCLFSGGIWNISGWV had an amyloid nucleation score of 0.509 ± 1.1.

With FFGNLVRWSNGYGDHCYSLN, the amyloid nucleation score amounted to 2.51 ± 0.22.

In the case of AKGYTEMVKYHRVSTTMVFM, the amyloid nucleation score entry was “inactive”.

In the case of AYNAECSVWSRRCSIAVMDL, the amyloid nucleation score stood at 0.757 ± 0.58.

As for IVYTYRVNIVII, the amyloid nucleation score was determined as 7.528 ± 0.044.

Consider DDLQCITLRFTRDASRGVSL, for which the amyloid nucleation score is 0.843 ± 0.84.

DFARQSSHPETWSSGDLSHS returned an amyloid nucleation score of 0.239 ± 0.96.

As to PMLGGRESEEPRVGWKVGWV, the amyloid nucleation score stood at 0.377 ± 0.27.

As to FCGDVKLMYWSRFVLMKGHQ, the amyloid nucleation score was -1.18 ± 1.1.

In the case of YVGSRSAVNIGIICGSRLNE, the amyloid nucleation score is -0.739 ± 1.5.

With NIVDVKPQKRETIRWLWIIF, the amyloid nucleation score was -0.232 ± 0.2.

Turning to FCVYKAVCIHYPSGFPLTIG, the amyloid nucleation score is -0.238 ± 0.31.

Turning to FAEENTSKFFSRKGEVCYMF, the amyloid nucleation score was -0.113 ± 0.9.

GSSRKSIVNIRILPSFALAE: the amyloid nucleation score is -0.272 ± 0.52.

Regarding TESVRKWFKLRLWESWYNSN, the amyloid nucleation score amounted to 0.145 ± 0.51.

NEFTFSYKYGRHSGRSLKRR: the amyloid nucleation score came to 2.32 ± 0.28.

LNFVNAPRSHMSGYSIGGLC: the amyloid nucleation score was -1.5 ± 1.7.

QNWMPRHLTITLNDIRLYL gave an amyloid nucleation score of 4.95 ± 0.12.

In the case of ISGNRSKVWNDGWIRPRYLC, the amyloid nucleation score stood at 0.679 ± 0.84.

SVHKWSSKTAMSLRTTYK: the amyloid nucleation score came to 0.284 ± 0.69.

As to GLRQYF, the amyloid nucleation score is -0.317 ± 0.84.

Take MRCKCGLYAHSYSALLGNVE: the amyloid nucleation score result is “inactive”.

EQCHRVFRAL: the amyloid nucleation score came to 0.362 ± 0.55.

For NLNFAAPKGGV, the amyloid nucleation score is -0.735 ± 2.4.

WILPNNRMVFVLYTEQWWTF gave an amyloid nucleation score of 2.33 ± 0.11.

Turning to VWMYMHAFCYSTGRRKAMPG, the amyloid nucleation score is -1.76 ± 0.77.

In the case of EIMFDWVMMEKKCRILHKKT, the amyloid nucleation score entry is “inactive”.

Substance SLLYSITNVCTLRGRMCCLA yielded an amyloid nucleation score of 0.116 ± 0.45.

In the case of LYEVNWVSYRMFAVGVRYVL, the amyloid nucleation score is -0.397 ± 0.36.

Substance RYNRLCTSLGRFKVVKSILS gave an amyloid nucleation score of 0.131 ± 0.33.

Take GRFVEMRLEHYRLNSRENSL: the amyloid nucleation score is -1.75 ± 2.7.

As to RIGTTWMMCIPWVLNCNV, the amyloid nucleation score is 6.945 ± 0.051.

On to IRGTLT, for which the amyloid nucleation score was -1.42 ± 2.1.

In the case of TVWYITTLAGEFAA, the amyloid nucleation score worked out at 1.09 ± 0.53.

KYYMSLDFWGHALH returned an amyloid nucleation score of 2.76 ± 0.15.

On to HVFSQ, for which the amyloid nucleation score was -0.756 ± 2.4.

As to LMESVAVFPNSRLPILTEC, the amyloid nucleation score is -0.011 ± 0.56.

With WELVCISFLVRDTCVVI, the amyloid nucleation score was 0.263 ± 0.47.

SHPVIL returned an amyloid nucleation score of 0.039 ± 0.29.

CNIVFSPGTDNVVEIRVRKL gave an amyloid nucleation score of 4.15 ± 0.062.

Turning to TSKDEFKFEYRNEKVNQ, the amyloid nucleation score came out at 1.75 ± 0.21.

The substance INVNRG came in with an amyloid nucleation score of 0.239 ± 0.56.

As to WVVLFLLWNGWVDWHIRTEQ, the amyloid nucleation score was -0.128 ± 0.36.

Regarding WKVVCNVPVVWFFLKRLHLL, the amyloid nucleation score was 0.498 ± 0.38.

In the case of YLTQLV, the amyloid nucleation score worked out at 0.528 ± 0.38.

Take SNFHRNVYRGYRV: the amyloid nucleation score result is “inactive”.

As to VDKYIIFIEIYIADSCDTLG, the amyloid nucleation score came out at 0.374 ± 0.54.

YAFRSRHRSFSFIGTLMVFD: the amyloid nucleation score came out at 0.55 ± 0.5.

With FLWSIICSYSQLY, the amyloid nucleation score is -0.201 ± 0.35.

Turning to MYYCD, the amyloid nucleation score is -0.35 ± 0.54.

With GDKSFSYCSLCCLFWARLPR, the amyloid nucleation score is 5.83 ± 0.064.

Consider IHVSFKDYLTVSTIMMWTIV, for which the amyloid nucleation score was -0.077 ± 0.66.

As to YTWIEHAWSS, the amyloid nucleation score was -0.062 ± 0.55.

FLQLLGGLRSYKTRVCMWCV: the amyloid nucleation score is -2.21 ± 2.7.

Consider FTRWLSFKTYG, for which the amyloid nucleation score is -0.283 ± 0.66.

In turn, WQHFLFCKKKRVESCNVSTN yielded an amyloid nucleation score of 1.02 ± 0.76.

In the case of FSFVSECGLAGFYPRE, the amyloid nucleation score was 0.35 ± 0.55.

As for RHSGDFLVFMYKGVLVWSTG, the amyloid nucleation score was 3.24 ± 0.092.

For the substance TGLYSYIGFSDGYCVYEMIT, the amyloid nucleation score is -0.122 ± 1.6.

KLNGNINFCFNCGNSGF gave an amyloid nucleation score of 7.27 ± 0.046.

For the substance MICKMNYQVRIPINFSYCLN, the amyloid nucleation score was 2.43 ± 0.15.

Take TFMHARDYDMNS: the amyloid nucleation score was -0.666 ± 0.86.

Turning to YYSLAVLTSLRARKSTVFND, the amyloid nucleation score was -1.16 ± 0.78.

With CMLREPKRKYPVKIMCSLLV, the amyloid nucleation score entry was “inactive”.

Regarding IRTPYIWLTCRGPYEVRRWD, the amyloid nucleation score was -0.247 ± 0.69.

With CWCSANALMCRGKLSAWNRH, the amyloid nucleation score entry is “inactive”.

In turn, SESKGHHKCRRALLYRGM had an amyloid nucleation score of 0.418 ± 1.2.

For LLDVLMDGRFSFVQRYCRAD, the amyloid nucleation score was determined as 1.05 ± 0.2.

For the substance SCNWDRNVLDMFFLN, the amyloid nucleation score result is “inactive”.

Substance GRREMEGTHIKKICRGGRTR came in with an amyloid nucleation score of 1.53 ± 0.73.

Take ARMASHRTCLNVYLRLCAYL: the amyloid nucleation score is -0.343 ± 0.31.

As to IWNVTPRGFDSAD, the amyloid nucleation score was -0.345 ± 0.97.

TKDGIT gave an amyloid nucleation score of 0.305 ± 0.97.

Take LGKQAMC: the amyloid nucleation score was -1.34 ± 2.4.

Take TKSTLL: the amyloid nucleation score was -0.296 ± 0.64.

NLFTTSSCNLIFSTICFD displayed an amyloid nucleation score of 7.281 ± 0.067.

Regarding HYTLIGIY, the amyloid nucleation score entry was “inactive”.

Take MLHWLKLIRTIGRFIRFFRC: the amyloid nucleation score entry is “inactive”.

HWLQY had an amyloid nucleation score of 0.156 ± 0.43.

As to FINHKHKQDQVI, the amyloid nucleation score came to 1.48 ± 0.49.

As for WTVLGYFRALQASLRASAGM, the amyloid nucleation score was determined as 0.099 ± 0.71.

Substance WVGLSFDDIKIYSASSN returned an amyloid nucleation score of 0.308 ± 0.52.

Substance CCERGWS gave an amyloid nucleation score of 0.156 ± 0.72.

With GCGFS, the amyloid nucleation score is -0.126 ± 0.4.

For CDVLFGLLSLRYLPSSLRIG, the amyloid nucleation score was -0.434 ± 0.48.

Substance TWQSLHGTVTRPRAIVFRLC returned an amyloid nucleation score of 0.027 ± 0.66.

Take IHKDFSLMHILRIHLVGVFS: the amyloid nucleation score result was “inactive”.

As for NPFCFMMRTGRSGSGWVKRR, the amyloid nucleation score came out at 0.088 ± 0.54.

The substance FTTDVERSVLFEVNLWSNGW gave an amyloid nucleation score of 5.33 ± 0.066.

As for RAGIFKEYCSFATVKYVKDN, the amyloid nucleation score is -1.04 ± 0.39.

Substance LVTRLALSFAVNFLLGDSCV showed an amyloid nucleation score of 0.595 ± 0.48.

LKYKKLPFIKRDEKFPTNRN had an amyloid nucleation score of 0.398 ± 0.54.

On to YVIMWGGLTLYLWGCRKWWE, for which the amyloid nucleation score is -0.103 ± 0.43.

In the case of LRGIDRTALGSGSERYLCLL, the amyloid nucleation score is -0.253 ± 0.59.

Regarding VSSRITPS, the amyloid nucleation score was determined as 1.11 ± 0.39.

The substance YTDFRQSLLTVT showed an amyloid nucleation score of 0.07 ± 0.43.

In turn, TVWYYSHPS yielded an amyloid nucleation score of 0.34 ± 0.48.

Regarding ARGYPLTYKYQVSRGSRLTL, the amyloid nucleation score came to 0.439 ± 0.4.

As for GYHSMLSLDDQIFVKLHDAK, the amyloid nucleation score is 0.135 ± 1.2.

The substance LRNVYLSGKFVYRGELNCET showed an amyloid nucleation score of 0.95 ± 0.31.

With TGCRHFLQVCSVHRRRGSVC, the amyloid nucleation score was 0.022 ± 0.78.

Take NVIGSGE: the amyloid nucleation score was 1.08 ± 0.51.

Take KELPSSSTCLKFS: the amyloid nucleation score is -0.155 ± 0.44.

For the substance SLDVICPGVYLEMLGRESIL, the amyloid nucleation score was -0.416 ± 0.84.

For the substance SPLFPRKLQVQYKTYPYG, the amyloid nucleation score entry is “inactive”.
